From PMC12015215, “Structural basis of human Mediator recruitment by the phosphorylated transcription factor Elk-1” (Nature Communications, 2025)
Where two headings read alike, the source gives them in different places. Values belong to the molecule of their own block, whether it stands above or below them.

What was measured:
[1] = biological target: T1, BAP-MED23-6His, biotinylated (human, UniProt Q9ULK4-1 1-1368, biotin on the BAP tag (biotinylated during expression)); assay: SPR; BIAcore T200; biotinylated BAP-MED23 captured on a streptavidin SA chip (2000-3000 RU), PBS+ buffer; GST-fused Elk-1 derivatives injected at 0.25-4 µM, single-cycle kinetics in triplicate, 1:1 Langmuir model
T1 construct: Mediator complex subunit MED23, human, isoform 1 (NM_004830.3); Captured by its biotin on a streptavidin SA chip; also called biotinylated MED23; MED23 with a BAP tag; source: insect cells (pFastBac Dual with BirA biotin ligase), purified by the same procedure as MED23-6His; not shown: BAP (biotin acceptor peptide), N-terminal, kept
T1 sequence: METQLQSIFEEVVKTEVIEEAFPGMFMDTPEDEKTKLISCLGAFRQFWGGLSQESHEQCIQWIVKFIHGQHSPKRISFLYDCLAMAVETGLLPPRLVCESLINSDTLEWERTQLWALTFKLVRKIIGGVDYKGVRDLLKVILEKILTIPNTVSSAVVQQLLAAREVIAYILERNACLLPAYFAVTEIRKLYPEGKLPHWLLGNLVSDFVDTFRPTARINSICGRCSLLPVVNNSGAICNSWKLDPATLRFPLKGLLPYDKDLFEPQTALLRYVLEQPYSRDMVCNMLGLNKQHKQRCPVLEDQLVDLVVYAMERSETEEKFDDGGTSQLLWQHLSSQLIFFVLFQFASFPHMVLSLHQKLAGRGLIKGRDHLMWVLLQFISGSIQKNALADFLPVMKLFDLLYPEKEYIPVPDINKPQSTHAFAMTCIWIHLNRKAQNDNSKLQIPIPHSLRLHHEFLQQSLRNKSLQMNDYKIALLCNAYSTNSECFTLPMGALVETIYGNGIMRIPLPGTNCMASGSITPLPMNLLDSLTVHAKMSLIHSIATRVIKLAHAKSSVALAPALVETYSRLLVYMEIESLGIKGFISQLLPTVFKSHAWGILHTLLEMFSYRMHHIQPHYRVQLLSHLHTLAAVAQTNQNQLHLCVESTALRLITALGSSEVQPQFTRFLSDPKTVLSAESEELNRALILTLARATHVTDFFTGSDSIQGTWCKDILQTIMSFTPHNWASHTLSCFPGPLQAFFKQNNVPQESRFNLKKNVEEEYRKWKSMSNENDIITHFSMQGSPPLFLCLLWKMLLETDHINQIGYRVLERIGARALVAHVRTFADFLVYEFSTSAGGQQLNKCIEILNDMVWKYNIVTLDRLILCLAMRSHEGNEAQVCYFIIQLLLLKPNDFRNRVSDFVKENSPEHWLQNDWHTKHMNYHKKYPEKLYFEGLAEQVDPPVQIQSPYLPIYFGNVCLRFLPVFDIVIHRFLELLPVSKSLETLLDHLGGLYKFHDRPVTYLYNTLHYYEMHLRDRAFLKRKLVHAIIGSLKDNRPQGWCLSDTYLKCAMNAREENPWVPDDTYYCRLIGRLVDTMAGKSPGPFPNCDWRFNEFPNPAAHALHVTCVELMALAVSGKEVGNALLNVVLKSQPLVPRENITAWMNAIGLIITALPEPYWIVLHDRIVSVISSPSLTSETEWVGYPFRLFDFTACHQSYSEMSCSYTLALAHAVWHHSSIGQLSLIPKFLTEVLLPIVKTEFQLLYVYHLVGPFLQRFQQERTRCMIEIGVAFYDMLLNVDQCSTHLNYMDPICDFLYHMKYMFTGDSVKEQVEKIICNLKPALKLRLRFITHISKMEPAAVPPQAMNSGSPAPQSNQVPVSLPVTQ

[2] = biological target: T2, MED23-6His (human Mediator complex subunit MED23, wild type) (human, UniProt Q9ULK4-1 1-1368); assay: pull-down; 4 µg GST constructs immobilised on GST-Trap agarose; 20 µg recombinant MED23 or MED23 G382F, 90 min at 4 °C in PBS-casein; SDS-PAGE, Coomassie; details: both partners purified
T2 construct: Mediator complex subunit MED23, human, isoform 1 (NM_004830.3); cloned before a rhinovirus 3C protease site followed by a 6xHis tag; The stored protein is named MED23-6His; cleavage by 3C protease is not reported; In the functional rows MED23 WT was expressed from PIN510A-1 or FC550A-1 plasmids in MED23-/- MEFs; also called MED23 WT; recombinant MED23; source: ExpiSF9 insect cells (baculovirus), …
T2 sequence: T1 sequence

Molecule: GST-fused Elk-1^1P (S383P) (308–401)-6His, phosphorylated only at S383 (from UniProt P19419 308-401) (domain or fragment)
Kd [1]: 81 nM

Molecule: GST-fused Elk-1^2P (T368P/S389P) (308–401)-6His, phosphorylated at T368 and S389 (from UniProt P19419 308-401) (domain or fragment)
Kd [1]: 75 nM

B1: GST-fused Elk-1^3P (308–401)-6His, phosphorylated at T368, S383 and S389 (domain or fragment, UniProt P19419 308-401, looked up)
chain: SQPQKGRKPRDLELPLSPSLLGGPGPERAPGSGSGSGLQAPGPALAPSLLPTHTLAPVLLTPSSLPPSIHFWSTLSPIAPRSPAKLSFQFPSSG
modifications: phosphorylated at T368, S383 and S389 by co-expressed ERK kinase
notes: In pGEX-4T1 (synthesised by Genscript); also called triply phosphorylated Elk-1; source: E. coli BL21 (DE3), co-expressed with MBP-ERK2-GOF/MEK1DD, purified (GSTrap 4B and/or HisTap HP)
Kd ([1]; both partners purified): 60 nM

More lines, now with the values ahead:

Kd [1]: 42 nM
Molecule: GST-fused Elk-1^2P (T368P/S383P) (308–401)-6His, phosphorylated at T368 and S383 (from UniProt P19419 308-401) (domain or fragment)

binding result [2]: binds
B2: phosphorylated GST-Elk-1^8P (308–428)-6His (domain or fragment, UniProt P19419 308-428, looked up)
chain: SQPQKGRKPRDLELPLSPSLLGGPGPERTPGSGSGSGLQAPGPALTPSLLPTHTLTPVLLTPSSLPPSIHFWSTLSPIAPRSPAKLSFQFPSSGSAQVHIPSISVDGLSTPVVLSPGPQKP
modifications: phosphorylated in E. coli by co-expressed ERK2-GOF/MEK1DD; which of the eight S/T-P sites carry phosphate is not stated
notes: In pGEX-6P1; also called Elk-1 TAD; Gal4-Elk-1^8P (308–428) in the reporter assays; source: E. coli BL21 (DE3), co-expressed with MBP-ERK2-GOF/MEK1DD, purified (GSTrap 4B and/or HisTap HP); not shown: GST, N-terminal, kept
